T1: human IL-12 (human, UniProt P29460 23-328; P29459 23-219)
T1 construct: also called Interleukin-12
T1 sequence 1: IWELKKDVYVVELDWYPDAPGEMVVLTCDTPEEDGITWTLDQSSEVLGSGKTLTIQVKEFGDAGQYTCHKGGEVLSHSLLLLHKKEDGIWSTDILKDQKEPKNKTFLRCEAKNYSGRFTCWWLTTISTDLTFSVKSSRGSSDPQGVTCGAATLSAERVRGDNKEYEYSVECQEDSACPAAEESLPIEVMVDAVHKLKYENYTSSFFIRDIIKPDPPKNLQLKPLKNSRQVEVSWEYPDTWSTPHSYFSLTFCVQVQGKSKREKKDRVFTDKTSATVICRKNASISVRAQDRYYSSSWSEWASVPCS
T1 sequence 2: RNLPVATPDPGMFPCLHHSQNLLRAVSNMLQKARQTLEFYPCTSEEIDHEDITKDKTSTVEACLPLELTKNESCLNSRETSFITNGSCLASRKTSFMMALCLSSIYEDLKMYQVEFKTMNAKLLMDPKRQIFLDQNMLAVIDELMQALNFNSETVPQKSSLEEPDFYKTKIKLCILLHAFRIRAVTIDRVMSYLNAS


biological target: T1, human IL-12; assay: SPR (Biacore T200), 37 C, pH 7.4; captured antibody, IL-12 analyte
Method: The affinity of anti-IL-12 antibodies binding to human IL-12 at pH 7.4 were determined at 37 degrees C. using Biacore T200 instrument (Cytiva). Anti-human Fc antibody (Cytiva) was immobilized onto all flow cells (FCs) of a CM4 sensor chip using amine coupling kit (Cytiva). All antibodies and analytes were prepared in ACES pH 7.4 containing 20 mM ACES, 150 mM NaCl, 0.05% Tween 20, 0.005% NaN₃. Each antibody was captured onto the sensor surface by anti-human Fc antibody. Antibody capture levels were aimed at 50 response unit (RU). 5 nM of human IL-12 were injected as analyte, followed by dissociation. Sensor surface was regenerated each cycle with 3M MgCl₂. […] Based on the results in Table 9, it is observed that binding kinetics of anti-IL-12 antibody AbI variants towards IL-12 were not drastically changed compared to control (−/−).

Row | Binder | Kd
1 | Anti-IL-12 antibody Ab1 variant F100aI VH/Y49A, F98L VL (antibody, name in Kabat numbering, V domains shown, Ab1 with VH/VL interface substitutions; Kabat numbering) VH: QVQLVQSGAEVKKPGSSVKVSCKASGGTFSDYYLHWVRQAPGQGLEWMGWIDPENGDTEYAPKFQGRVTITADESTSTAYMELSSLRSEDTAVYYCARNKELRYIDVWGQGTLVTVSS VL: DIVMTQSPLSLPVTPGEPASISCRASQSISINLHWYQQKPGQAPRLLIAFASQSISGVPSRFSGSGSGTDFTLTISSLQPEDFATYYCQQSNSFPLTLGQGTKVEIKR | 1.44 nM
2 | Anti-IL-12 antibody Ab1 variant G44Q VH/- (antibody, name in Kabat numbering, V domains shown, Ab1 with VH/VL interface substitutions; Kabat numbering) VH: QVQLVQSGAEVKKPGSSVKVSCKASGGTFSDYYLHWVRQAPGQQLEWMGWIDPENGDTEYAPKFQGRVTITADESTSTAYMELSSLRSEDTAVYYCARNKELRYFDVWGQGTLVTVSS VL: DIVMTQSPLSLPVTPGEPASISCRASQSISINLHWYQQKPGQAPRLLIYFASQSISGVPSRFSGSGSGTDFTLTISSLQPEDFATYYCQQSNSFPLTFGQGTKVEIKR | 0.793 nM
3 | Anti-IL-12 antibody Ab1 variant L45Q VH/A43Q, Y49A VL (antibody, name in Kabat numbering, V domains shown, Ab1 with VH/VL interface substitutions; Kabat numbering) VH: QVQLVQSGAEVKKPGSSVKVSCKASGGTFSDYYLHWVRQAPGQGQEWMGWIDPENGDTEYAPKFQGRVTITADESTSTAYMELSSLRSEDTAVYYCARNKELRYFDVWGQGTLVTVSS VL: DIVMTQSPLSLPVTPGEPASISCRASQSISINLHWYQQKPGQQPRLLIAFASQSISGVPSRFSGSGSGTDFTLTISSLQPEDFATYYCQQSNSFPLTFGQGTKVEIKR | 2.23 nM
4 | Anti-IL-12 antibody Ab1 variant L45Q VH/- (antibody, name in Kabat numbering, V domains shown, Ab1 with VH/VL interface substitutions; Kabat numbering) VH: QVQLVQSGAEVKKPGSSVKVSCKASGGTFSDYYLHWVRQAPGQGQEWMGWIDPENGDTEYAPKFQGRVTITADESTSTAYMELSSLRSEDTAVYYCARNKELRYFDVWGQGTLVTVSS VL: DIVMTQSPLSLPVTPGEPASISCRASQSISINLHWYQQKPGQAPRLLIYFASQSISGVPSRFSGSGSGTDFTLTISSLQPEDFATYYCQQSNSFPLTFGQGTKVEIKR | 1.3 nM
5 | Anti-IL-12 antibody Ab1 variant L45Q VH/L46Q, Y49A VL (antibody, name in Kabat numbering, V domains shown, Ab1 with VH/VL interface substitutions; Kabat numbering) VH: QVQLVQSGAEVKKPGSSVKVSCKASGGTFSDYYLHWVRQAPGQGQEWMGWIDPENGDTEYAPKFQGRVTITADESTSTAYMELSSLRSEDTAVYYCARNKELRYFDVWGQGTLVTVSS VL: DIVMTQSPLSLPVTPGEPASISCRASQSISINLHWYQQKPGQAPRQLIAFASQSISGVPSRFSGSGSGTDFTLTISSLQPEDFATYYCQQSNSFPLTFGQGTKVEIKR | 2.82 nM
6 | Anti-IL-12 antibody Ab1 variant V37S VH/L46Q, Y49A VL (antibody, name in Kabat numbering, V domains shown, Ab1 with VH/VL interface substitutions; Kabat numbering) VH: QVQLVQSGAEVKKPGSSVKVSCKASGGTFSDYYLHWSRQAPGQGLEWMGWIDPENGDTEYAPKFQGRVTITADESTSTAYMELSSLRSEDTAVYYCARNKELRYFDVWGQGTLVTVSS VL: DIVMTQSPLSLPVTPGEPASISCRASQSISINLHWYQQKPGQAPRQLIAFASQSISGVPSRFSGSGSGTDFTLTISSLQPEDFATYYCQQSNSFPLTFGQGTKVEIKR | 3.06 nM
7 | Anti-IL-12 antibody Ab1 variant L45Q VH/P44A, Y49A VL (antibody, name in Kabat numbering, V domains shown, Ab1 with VH/VL interface substitutions; Kabat numbering) VH: QVQLVQSGAEVKKPGSSVKVSCKASGGTFSDYYLHWVRQAPGQGQEWMGWIDPENGDTEYAPKFQGRVTITADESTSTAYMELSSLRSEDTAVYYCARNKELRYFDVWGQGTLVTVSS VL: DIVMTQSPLSLPVTPGEPASISCRASQSISINLHWYQQKPGQAARLLIAFASQSISGVPSRFSGSGSGTDFTLTISSLQPEDFATYYCQQSNSFPLTFGQGTKVEIKR | 2.74 nM
8 | Anti-IL-12 antibody Ab1 variant V37S VH/L46Q, Y49A, Y87M VL (antibody, name in Kabat numbering, V domains shown, Ab1 with VH/VL interface substitutions; Kabat numbering) VH: QVQLVQSGAEVKKPGSSVKVSCKASGGTFSDYYLHWSRQAPGQGLEWMGWIDPENGDTEYAPKFQGRVTITADESTSTAYMELSSLRSEDTAVYYCARNKELRYFDVWGQGTLVTVSS VL: DIVMTQSPLSLPVTPGEPASISCRASQSISINLHWYQQKPGQAPRQLIAFASQSISGVPSRFSGSGSGTDFTLTISSLQPEDFATYMCQQSNSFPLTFGQGTKVEIKR | 3.87 nM
9 | Anti-IL-12 antibody Ab1 variant V37S, F100aI VH/A43Q, Y49A VL (antibody, name in Kabat numbering, V domains shown, Ab1 with VH/VL interface substitutions; Kabat numbering) VH: QVQLVQSGAEVKKPGSSVKVSCKASGGTFSDYYLHWSRQAPGQGLEWMGWIDPENGDTEYAPKFQGRVTITADESTSTAYMELSSLRSEDTAVYYCARNKELRYIDVWGQGTLVTVSS VL: DIVMTQSPLSLPVTPGEPASISCRASQSISINLHWYQQKPGQQPRLLIAFASQSISGVPSRFSGSGSGTDFTLTISSLQPEDFATYYCQQSNSFPLTFGQGTKVEIKR | 1.12 nM
10 | Anti-IL-12 antibody Ab1 variant L45Q VH/Y49A, Y87L VL (antibody, name in Kabat numbering, V domains shown, Ab1 with VH/VL interface substitutions; Kabat numbering) VH: QVQLVQSGAEVKKPGSSVKVSCKASGGTFSDYYLHWVRQAPGQGQEWMGWIDPENGDTEYAPKFQGRVTITADESTSTAYMELSSLRSEDTAVYYCARNKELRYFDVWGQGTLVTVSS VL: DIVMTQSPLSLPVTPGEPASISCRASQSISINLHWYQQKPGQAPRLLIAFASQSISGVPSRFSGSGSGTDFTLTISSLQPEDFATYLCQQSNSFPLTFGQGTKVEIKR | 3.61 nM
11 | Anti-IL-12 antibody Ab1 variant F100aI VH/Y49A, Y87L VL (antibody, name in Kabat numbering, V domains shown, Ab1 with VH/VL interface substitutions; Kabat numbering) VH: QVQLVQSGAEVKKPGSSVKVSCKASGGTFSDYYLHWVRQAPGQGLEWMGWIDPENGDTEYAPKFQGRVTITADESTSTAYMELSSLRSEDTAVYYCARNKELRYIDVWGQGTLVTVSS VL: DIVMTQSPLSLPVTPGEPASISCRASQSISINLHWYQQKPGQAPRLLIAFASQSISGVPSRFSGSGSGTDFTLTISSLQPEDFATYLCQQSNSFPLTFGQGTKVEIKR | 2.1 nM
12 | Anti-IL-12 antibody Ab1 variant L45A VH/- (antibody, name in Kabat numbering, V domains shown, Ab1 with VH/VL interface substitutions; Kabat numbering) VH: QVQLVQSGAEVKKPGSSVKVSCKASGGTFSDYYLHWVRQAPGQGAEWMGWIDPENGDTEYAPKFQGRVTITADESTSTAYMELSSLRSEDTAVYYCARNKELRYFDVWGQGTLVTVSS VL: DIVMTQSPLSLPVTPGEPASISCRASQSISINLHWYQQKPGQAPRLLIYFASQSISGVPSRFSGSGSGTDFTLTISSLQPEDFATYYCQQSNSFPLTFGQGTKVEIKR | 1.27 nM
13 | Anti-IL-12 antibody Ab1 variant V37S VH/- (antibody, name in Kabat numbering, V domains shown, Ab1 with VH/VL interface substitutions; Kabat numbering) VH: QVQLVQSGAEVKKPGSSVKVSCKASGGTFSDYYLHWSRQAPGQGLEWMGWIDPENGDTEYAPKFQGRVTITADESTSTAYMELSSLRSEDTAVYYCARNKELRYFDVWGQGTLVTVSS VL: DIVMTQSPLSLPVTPGEPASISCRASQSISINLHWYQQKPGQAPRLLIYFASQSISGVPSRFSGSGSGTDFTLTISSLQPEDFATYYCQQSNSFPLTFGQGTKVEIKR | 0.789 nM
14 | Anti-IL-12 antibody Ab1 variant V37S VH/A43Q, Y49A VL (antibody, name in Kabat numbering, Ab1 with VH/VL interface substitutions; Kabat numbering) heavy: not shown light: DIVMTQSPLSLPVTPGEPASISCRASQSISINLHWYQQKPGQQPRLLIAFASQSISGVPSRFSGSGSGTDFTLTISSLQPEDFATYYCQQSNSFPLTFGQGTKVEIKRTVAAPSVFIFPPSDEQLKSGTASVVCLLNNFYPREAKVQWKVDNALQSGNSQESVTEQDSKDSTYSLSSTLTLSKADYEKHKVYACEVTHQGLSSPVTKSFNRGEC | 1.49 nM
15 | Anti-IL-12 antibody Ab1 variant L45Q VH/Y49A, F98M VL (antibody, name in Kabat numbering, V domains shown, Ab1 with VH/VL interface substitutions; Kabat numbering) VH: QVQLVQSGAEVKKPGSSVKVSCKASGGTFSDYYLHWVRQAPGQGQEWMGWIDPENGDTEYAPKFQGRVTITADESTSTAYMELSSLRSEDTAVYYCARNKELRYFDVWGQGTLVTVSS VL: DIVMTQSPLSLPVTPGEPASISCRASQSISINLHWYQQKPGQAPRLLIAFASQSISGVPSRFSGSGSGTDFTLTISSLQPEDFATYYCQQSNSFPLTMGQGTKVEIKR | 3.27 nM
16 | Anti-IL-12 antibody Ab1 variant V37S VH/P44A, Y49A VL (antibody, name in Kabat numbering, V domains shown, Ab1 with VH/VL interface substitutions; Kabat numbering) VH: QVQLVQSGAEVKKPGSSVKVSCKASGGTFSDYYLHWSRQAPGQGLEWMGWIDPENGDTEYAPKFQGRVTITADESTSTAYMELSSLRSEDTAVYYCARNKELRYFDVWGQGTLVTVSS VL: DIVMTQSPLSLPVTPGEPASISCRASQSISINLHWYQQKPGQAARLLIAFASQSISGVPSRFSGSGSGTDFTLTISSLQPEDFATYYCQQSNSFPLTFGQGTKVEIKR | 2.96 nM
17 | Anti-IL-12 antibody Ab1 variant V37Q VH/- (antibody, name in Kabat numbering, V domains shown, Ab1 with VH/VL interface substitutions; Kabat numbering) VH: QVQLVQSGAEVKKPGSSVKVSCKASGGTFSDYYLHWQRQAPGQGLEWMGWIDPENGDTEYAPKFQGRVTITADESTSTAYMELSSLRSEDTAVYYCARNKELRYFDVWGQGTLVTVSS VL: DIVMTQSPLSLPVTPGEPASISCRASQSISINLHWYQQKPGQAPRLLIYFASQSISGVPSRFSGSGSGTDFTLTISSLQPEDFATYYCQQSNSFPLTFGQGTKVEIKR | 1.48 nM
18 | Anti-IL-12 antibody Ab1 variant V37S VH/Y49A, Y87L VL (antibody, name in Kabat numbering, V domains shown, Ab1 with VH/VL interface substitutions; Kabat numbering) VH: QVQLVQSGAEVKKPGSSVKVSCKASGGTFSDYYLHWSRQAPGQGLEWMGWIDPENGDTEYAPKFQGRVTITADESTSTAYMELSSLRSEDTAVYYCARNKELRYFDVWGQGTLVTVSS VL: DIVMTQSPLSLPVTPGEPASISCRASQSISINLHWYQQKPGQAPRLLIAFASQSISGVPSRFSGSGSGTDFTLTISSLQPEDFATYLCQQSNSFPLTFGQGTKVEIKR | 3.04 nM
19 | Anti-IL-12 antibody Ab1 variant V37S VH/Y49A, F98L VL (antibody, name in Kabat numbering, V domains shown, Ab1 with VH/VL interface substitutions; Kabat numbering) VH: QVQLVQSGAEVKKPGSSVKVSCKASGGTFSDYYLHWSRQAPGQGLEWMGWIDPENGDTEYAPKFQGRVTITADESTSTAYMELSSLRSEDTAVYYCARNKELRYFDVWGQGTLVTVSS VL: DIVMTQSPLSLPVTPGEPASISCRASQSISINLHWYQQKPGQAPRLLIAFASQSISGVPSRFSGSGSGTDFTLTISSLQPEDFATYYCQQSNSFPLTLGQGTKVEIKR | 0.982 nM

— patent publication US20240343771A1 (Chugai, published 2024)
